Patent US20220143024A1, “METHODS OF USING IMIPRIDONES” (Board of Regents, The University of Texas System, priority 2019, published 2022)

Key:
Experiment in all cases: BioID-MS
AIFM1 (human) = AIFM1 (human) (UniProt O95831)
FASTKD2 (human) = FASTKD2 (human) (UniProt Q9NYY8)
MRPS36 (human) = MRPS36 (human) (UniProt P82909)
SFXN4 (human) = SFXN4 (human) (UniProt Q6P4A7)
BCS1L (human) = BCS1L (human) (UniProt Q9Y276)
GRPEL1 (human) = GRPEL1 (human) (UniProt Q9HAV7)
POLG2 (human) = POLG2 (human) (UniProt Q9UHN1)
IDI1 (human) = IDI1 (human) (UniProt Q13907)
NDUFA6 (human) = NDUFA6 (human) (UniProt P56556)
HSPE1 (human) = HSPE1 (human) (UniProt P61604)
SUPV3L1 (human) = SUPV3L1 (human) (UniProt Q8IYB8)
NFS1 (human) = NFS1 (human) (UniProt Q9Y697)
C8orf82 (human) = C8orf82 (human) (UniProt Q6P1X6)
MICU2 (human) = MICU2 (human) (UniProt Q8IYU8)
NDUFV2 (human) = NDUFV2 (human) (UniProt P19404)
POLG (human) = POLG (human) (UniProt P54098)
RTN4IP1 (human) = RTN4IP1 (human) (UniProt Q8WWV3)
MTHFD1L (human) = MTHFD1L (human) (UniProt Q6UB35)
XPNPEP3 (human) = XPNPEP3 (human) (UniProt Q9NQH7)
MRPL48 (human) = MRPL48 (human) (UniProt Q96GC5)
MRPL46 (human) = MRPL46 (human) (UniProt Q9H2W6)
CHCHD3 (human) = CHCHD3 (human) (UniProt Q9NX63)
ABAT (human) = ABAT (human) (UniProt P80404)
NDUFA2 (human) = NDUFA2 (human) (UniProt O43678)
SPRYD4 (human) = SPRYD4 (human) (UniProt Q8WW59)
ALDH6A1 (human) = ALDH6A1 (human) (UniProt Q02252)
IARS2 (human) = IARS2 (human) (UniProt Q9NSE4)
PRKCA (human) = PRKCA (human) (UniProt P17252)
ETFB (human) = ETFB (human) (UniProt P38117)
C20orf7 (human) = C20orf7 (human) (UniProt Q5TEU4)
GTPBP3 (human) = GTPBP3 (human) (UniProt Q969Y2)
VWA8 (human) = VWA8 (human) (UniProt A3KMH1)
TAC01 (human) = TAC01 (human) (UniProt Q9BSH4)
HARS2 (human) = HARS2 (human) (UniProt P49590)
LYRM4 (human) = LYRM4 (human) (UniProt Q9HD34)
MMAB (human) = MMAB (human) (UniProt Q96EY8)
PAM16 (human) = PAM16 (human) (UniProt Q9Y3D7)
HSDL2 (human) = HSDL2 (human) (UniProt Q6YN16)
DCAKD (human) = DCAKD (human) (UniProt Q8WVC6)
MRPS25 (human) = MRPS25 (human) (UniProt P82663)
HIBCH (human) = HIBCH (human) (UniProt Q6NVY1)
PPIF (human) = PPIF (human) (UniProt P30405)
EFHA1 (human) = EFHA1 (human) (UniProt Q8IYU8)
GLUD1 (human) = GLUD1 (human) (UniProt P00367)
C12orf10 (human) = C12orf10 (human) (UniProt Q9HB07)
HADH (human) = HADH (human) (UniProt Q16836)
RG9MTD1 (human) = RG9MTD1 (human) (UniProt Q7L0Y3)
MRPL40 (human) = MRPL40 (human) (UniProt Q9NQ50)
WARS2 (human) = WARS2 (human) (UniProt Q9UGM6)
QRSL1 (human) = QRSL1 (human) (UniProt Q9H0R6)
SSBP1 (human) = SSBP1 (human) (UniProt Q04837)
PIN1 (human) = PIN1 (human) (UniProt Q13526)
ACAT1 (human) = ACAT1 (human) (UniProt P24752)
CARS2 (human) = CARS2 (human) (UniProt Q9HA77)
CPOX (human) = CPOX (human) (UniProt P36551)
MRPL55 (human) = MRPL55 (human) (UniProt Q7Z7F7)
HSD17B10 (human) = HSD17B10 (human) (UniProt Q99714)
MARS2 (human) = MARS2 (human) (UniProt Q96GW9)

Q: With “FlagBirA-ClpP (Y118A) (from UniProt P06709 1-321; Q16740 57-277) (enzyme)” as the substance, how does the Log2 Fold change (vs control) (AIFM1 (human)) read?
A: Its Log2 Fold change (vs control) is -2.32 log2.

Q: What about the Log2 Fold change (vs control) (FASTKD2 (human)) of the same substance?
A: Its Log2 Fold change (vs control) is 0.71 log2.

Q: What about the Log2 Fold change (vs control) (MRPS36 (human)) of the same substance?
A: Its Log2 Fold change (vs control) is 0.11 log2.

Q: And the Log2 Fold change (vs control) (SFXN4 (human))?
A: The Log2 Fold change (vs control) was -0.38 log2.

Q: What about the Log2 Fold change (vs control) (BCS1L (human)) of the same substance?
A: The Log2 Fold change (vs control) was 0.47 log2.

Q: What about the Log2 Fold change (vs control) (GRPEL1 (human)) of the same substance?
A: Its Log2 Fold change (vs control) is 0 log2.

Q: And the Log2 Fold change (vs control) (POLG2 (human))?
A: The Log2 Fold change (vs control) was -0.89 log2.

Q: What about the Log2 Fold change (vs control) (IDI1 (human)) of the same substance?
A: The Log2 Fold change (vs control) was 1.28 log2.

Q: What about the Log2 Fold change (vs control) (NDUFA6 (human)) of the same substance?
A: Its Log2 Fold change (vs control) is 0.44 log2.

Q: And the Log2 Fold change (vs control) (HSPE1 (human))?
A: The Log2 Fold change (vs control) was 0.92 log2.

Q: What about the Log2 Fold change (vs control) (SUPV3L1 (human)) of the same substance?
A: The Log2 Fold change (vs control) was 0.56 log2.

Q: And the Log2 Fold change (vs control) (NFS1 (human))?
A: The Log2 Fold change (vs control) was 0.25 log2.

Q: And the Log2 Fold change (vs control) (C8orf82 (human))?
A: Its Log2 Fold change (vs control) is 1.6 log2.

Q: And the Log2 Fold change (vs control) (MICU2 (human))?
A: The Log2 Fold change (vs control) was -0.18 log2.

Q: What about the Log2 Fold change (vs control) (NDUFV2 (human)) of the same substance?
A: The Log2 Fold change (vs control) was -0.47 log2.

Q: And the Log2 Fold change (vs control) (POLG (human))?
A: The Log2 Fold change (vs control) was 0.26 log2.

Q: What about the Log2 Fold change (vs control) (RTN4IP1 (human)) of the same substance?
A: The Log2 Fold change (vs control) was -0.52 log2.

Q: And the Log2 Fold change (vs control) (MTHFD1L (human))?
A: Its Log2 Fold change (vs control) is 0.25 log2.

Q: What about the Log2 Fold change (vs control) (XPNPEP3 (human)) of the same substance?
A: Its Log2 Fold change (vs control) is -0.31 log2.

Q: What about the Log2 Fold change (vs control) (MRPL48 (human)) of the same substance?
A: The Log2 Fold change (vs control) was 0.15 log2.

Q: What about the Log2 Fold change (vs control) (MRPL46 (human)) of the same substance?
A: The Log2 Fold change (vs control) was -0.28 log2.

Q: And the Log2 Fold change (vs control) (CHCHD3 (human))?
A: Its Log2 Fold change (vs control) is -2.46 log2.

Q: What about the Log2 Fold change (vs control) (ABAT (human)) of the same substance?
A: The Log2 Fold change (vs control) was -3.58 log2.

Q: And the Log2 Fold change (vs control) (NDUFA2 (human))?
A: The Log2 Fold change (vs control) was -0.23 log2.

Q: What about the Log2 Fold change (vs control) (SPRYD4 (human)) of the same substance?
A: The Log2 Fold change (vs control) was 0.22 log2.

Q: And the Log2 Fold change (vs control) (ALDH6A1 (human))?
A: The Log2 Fold change (vs control) was -1.22 log2.

Q: What about the Log2 Fold change (vs control) (IARS2 (human)) of the same substance?
A: The Log2 Fold change (vs control) was 0.43 log2.

Q: And the Log2 Fold change (vs control) (PRKCA (human))?
A: The Log2 Fold change (vs control) was -3.58 log2.

Q: And the Log2 Fold change (vs control) (ETFB (human))?
A: The Log2 Fold change (vs control) was 0.4 log2.

Q: And the Log2 Fold change (vs control) (C20orf7 (human))?
A: The Log2 Fold change (vs control) was -0.06 log2.

Q: What about the Log2 Fold change (vs control) (GTPBP3 (human)) of the same substance?
A: The Log2 Fold change (vs control) was -0.5 log2.

Q: What about the Log2 Fold change (vs control) (VWA8 (human)) of the same substance?
A: The Log2 Fold change (vs control) was 1.02 log2.

Q: And the Log2 Fold change (vs control) (TAC01 (human))?
A: The Log2 Fold change (vs control) was 0.07 log2.

Q: What about the Log2 Fold change (vs control) (HARS2 (human)) of the same substance?
A: Its Log2 Fold change (vs control) is -0.49 log2.

Q: What about the Log2 Fold change (vs control) (LYRM4 (human)) of the same substance?
A: The Log2 Fold change (vs control) was 0.52 log2.

Q: What about the Log2 Fold change (vs control) (MMAB (human)) of the same substance?
A: The Log2 Fold change (vs control) was 0.11 log2.

Q: What about the Log2 Fold change (vs control) (PAM16 (human)) of the same substance?
A: Its Log2 Fold change (vs control) is -0.42 log2.

Q: And the Log2 Fold change (vs control) (HSDL2 (human))?
A: The Log2 Fold change (vs control) was 0.83 log2.

Q: And the Log2 Fold change (vs control) (DCAKD (human))?
A: The Log2 Fold change (vs control) was -3.75 log2.

Q: What about the Log2 Fold change (vs control) (MRPS25 (human)) of the same substance?
A: Its Log2 Fold change (vs control) is 0.62 log2.

Q: And the Log2 Fold change (vs control) (HIBCH (human))?
A: The Log2 Fold change (vs control) was 0.35 log2.

Q: And the Log2 Fold change (vs control) (PPIF (human))?
A: The Log2 Fold change (vs control) was 0.09 log2.

Q: What about the Log2 Fold change (vs control) (EFHA1 (human)) of the same substance?
A: The Log2 Fold change (vs control) was -4.17 log2.

Q: What about the Log2 Fold change (vs control) (GLUD1 (human)) of the same substance?
A: Its Log2 Fold change (vs control) is -0.39 log2.

Q: What about the Log2 Fold change (vs control) (C12orf10 (human)) of the same substance?
A: Its Log2 Fold change (vs control) is -3.75 log2.

Q: What about the Log2 Fold change (vs control) (HADH (human)) of the same substance?
A: The Log2 Fold change (vs control) was 0.8 log2.

Q: What about the Log2 Fold change (vs control) (RG9MTD1 (human)) of the same substance?
A: The Log2 Fold change (vs control) was 0.47 log2.

Q: What about the Log2 Fold change (vs control) (MRPL40 (human)) of the same substance?
A: Its Log2 Fold change (vs control) is 0.37 log2.

Q: What about the Log2 Fold change (vs control) (WARS2 (human)) of the same substance?
A: Its Log2 Fold change (vs control) is 0.25 log2.

Q: What about the Log2 Fold change (vs control) (QRSL1 (human)) of the same substance?
A: Its Log2 Fold change (vs control) is -0.01 log2.

Q: And the Log2 Fold change (vs control) (SSBP1 (human))?
A: Its Log2 Fold change (vs control) is 0.89 log2.

Q: And the Log2 Fold change (vs control) (PIN1 (human))?
A: The Log2 Fold change (vs control) was -3.81 log2.

Q: And the Log2 Fold change (vs control) (ACAT1 (human))?
A: The Log2 Fold change (vs control) was -0.01 log2.

Q: And the Log2 Fold change (vs control) (CARS2 (human))?
A: Its Log2 Fold change (vs control) is -0.38 log2.

Q: What about the Log2 Fold change (vs control) (CPOX (human)) of the same substance?
A: The Log2 Fold change (vs control) was 0.88 log2.

Q: What about the Log2 Fold change (vs control) (MRPL55 (human)) of the same substance?
A: Its Log2 Fold change (vs control) is -0.2 log2.

Q: What about the Log2 Fold change (vs control) (HSD17B10 (human)) of the same substance?
A: The Log2 Fold change (vs control) was 0.72 log2.

Q: What about the Log2 Fold change (vs control) (MARS2 (human)) of the same substance?
A: Its Log2 Fold change (vs control) is 0.23 log2.
